Test results reported in paper PMC4197441, “Phosphoinositide 3-kinase p85beta regulates invadopodium formation” (Biology Open, 2014).

Target: T1, focal adhesion kinase (mouse (endogenous in NIH3T3), UniProt P34152 1-1052)
T1 construct: focal adhesion kinase (FAK), endogenous in NIH3T3 fibroblasts, immunoprecipitated with anti-FAK Ab (BD Bioscience); also called FAK; Ptk2; source: endogenous, NIH3T3 cell extract
Assay: co-IP; NIH3T3 cell extracts (500 µg, TX-100 lysis buffer) immunoprecipitated with anti-FAK Ab, WB with anti-HA Ab; cells without serum 16 h, then 10% serum (in suspension), FN, or FN plus serum for 20 or 60 min
Conditions: partners not purified

T1 sequence (P34152 whole entry): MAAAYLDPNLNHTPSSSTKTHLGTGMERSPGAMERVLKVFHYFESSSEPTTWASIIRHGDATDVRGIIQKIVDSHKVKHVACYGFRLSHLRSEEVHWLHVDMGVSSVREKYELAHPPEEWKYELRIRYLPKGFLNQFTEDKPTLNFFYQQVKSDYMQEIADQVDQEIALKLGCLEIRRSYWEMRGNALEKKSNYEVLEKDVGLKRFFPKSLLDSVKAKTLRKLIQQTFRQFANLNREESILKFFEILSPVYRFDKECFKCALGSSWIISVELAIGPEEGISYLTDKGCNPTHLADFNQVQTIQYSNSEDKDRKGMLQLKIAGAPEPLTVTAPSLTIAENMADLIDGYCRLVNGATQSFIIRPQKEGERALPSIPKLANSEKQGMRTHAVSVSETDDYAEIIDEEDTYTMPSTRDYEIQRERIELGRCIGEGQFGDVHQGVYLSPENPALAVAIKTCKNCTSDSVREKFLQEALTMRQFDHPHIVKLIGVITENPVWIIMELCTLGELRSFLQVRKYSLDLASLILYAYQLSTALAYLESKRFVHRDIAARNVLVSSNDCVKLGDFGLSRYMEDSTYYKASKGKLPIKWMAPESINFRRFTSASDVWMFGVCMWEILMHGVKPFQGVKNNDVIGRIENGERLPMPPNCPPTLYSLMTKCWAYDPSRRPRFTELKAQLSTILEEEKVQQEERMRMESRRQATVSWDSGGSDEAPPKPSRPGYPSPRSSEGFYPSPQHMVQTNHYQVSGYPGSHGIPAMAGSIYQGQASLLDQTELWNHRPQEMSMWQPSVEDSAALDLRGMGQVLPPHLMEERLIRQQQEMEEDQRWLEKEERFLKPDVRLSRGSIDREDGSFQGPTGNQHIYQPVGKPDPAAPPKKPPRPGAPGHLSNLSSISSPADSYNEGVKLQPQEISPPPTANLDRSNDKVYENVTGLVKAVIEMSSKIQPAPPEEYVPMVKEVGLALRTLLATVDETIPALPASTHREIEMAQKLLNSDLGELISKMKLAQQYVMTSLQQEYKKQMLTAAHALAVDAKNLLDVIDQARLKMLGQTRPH

fold amount co-precipitated with FAK relative to rHAp85α: 5 fold
B1: recombinant HA-tagged p85β (regulatory subunit of phosphoinositide 3-kinase) (natural protein)
chain: not shown
notes: p85β regulatory subunit of PI3K, murine cDNA (from pT7/T3-U19) subcloned into pSG5; the p85β ATG codon was replaced with a proline residue and the ATG of the HA tag kept; The only change is the first methionine to proline at the junction with the N-terminal HA tag; also called rHAp85β; HA-p85β; source: NIH3T3, transfected (pSG5), in cell extract; not shown: HA, N-terminal, kept
